Values quoted from earlier work in PMC6389997.

Key:
Conditions in all cases: cited from earlier work
[1] = molecular target: sigma32 (Escherichia coli) (UniProt P0AGB3)
[2] = molecular target: Im7 (intermediate-like) (Escherichia coli) (UniProt Q03708)
[3] = molecular target: Im7 (unfolded-like) (Escherichia coli) (UniProt Q03708)
[4] = molecular target: Im7 (folded) (Escherichia coli) (UniProt Q03708)
Chain of Im7 (folded) (Escherichia coli) (Q03708 whole entry): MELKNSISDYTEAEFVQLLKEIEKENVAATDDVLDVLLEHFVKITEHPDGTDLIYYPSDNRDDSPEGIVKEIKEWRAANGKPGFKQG

Chain of Spy (P77754 24-161): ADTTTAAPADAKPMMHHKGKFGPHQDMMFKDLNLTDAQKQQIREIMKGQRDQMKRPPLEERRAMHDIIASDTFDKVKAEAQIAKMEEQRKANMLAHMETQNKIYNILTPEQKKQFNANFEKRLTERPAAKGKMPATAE
Chain of DnaK (P0A6Y8 2-638): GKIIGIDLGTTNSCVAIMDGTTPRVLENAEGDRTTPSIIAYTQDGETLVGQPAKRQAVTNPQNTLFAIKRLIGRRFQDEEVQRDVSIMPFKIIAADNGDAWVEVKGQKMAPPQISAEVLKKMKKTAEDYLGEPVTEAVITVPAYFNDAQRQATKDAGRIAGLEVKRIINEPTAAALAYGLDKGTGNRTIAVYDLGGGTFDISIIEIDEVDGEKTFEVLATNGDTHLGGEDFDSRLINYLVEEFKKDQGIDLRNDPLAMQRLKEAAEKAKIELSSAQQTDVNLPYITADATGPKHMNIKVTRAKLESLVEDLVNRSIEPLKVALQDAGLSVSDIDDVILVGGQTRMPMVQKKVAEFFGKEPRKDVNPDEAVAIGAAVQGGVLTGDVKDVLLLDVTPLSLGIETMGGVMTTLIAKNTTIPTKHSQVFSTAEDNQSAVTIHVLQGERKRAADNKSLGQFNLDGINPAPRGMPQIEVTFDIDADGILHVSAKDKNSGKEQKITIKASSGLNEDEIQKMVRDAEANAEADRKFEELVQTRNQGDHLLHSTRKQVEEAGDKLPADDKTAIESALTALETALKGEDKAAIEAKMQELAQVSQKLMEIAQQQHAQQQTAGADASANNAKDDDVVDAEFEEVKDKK
Chain of sigma32 (Escherichia coli) (P0AGB3 whole entry): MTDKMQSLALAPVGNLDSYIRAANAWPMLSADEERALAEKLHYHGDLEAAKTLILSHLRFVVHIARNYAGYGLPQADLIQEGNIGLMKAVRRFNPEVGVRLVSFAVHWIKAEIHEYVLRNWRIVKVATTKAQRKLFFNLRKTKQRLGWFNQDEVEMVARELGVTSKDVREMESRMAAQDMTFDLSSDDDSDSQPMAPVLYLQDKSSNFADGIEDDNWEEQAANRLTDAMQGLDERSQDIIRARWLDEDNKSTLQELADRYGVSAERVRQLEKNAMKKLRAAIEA
Chain of Im7 (intermediate-like) (Escherichia coli) (Q03708 whole entry): as the sequence (Q03708 whole entry) above
Chain of Im7 (unfolded-like) (Escherichia coli) (Q03708 whole entry): as above

| Substance | Kd [1] [µM] | Kd [2] [µM] | Kd [3] [µM] | Kd [4] [µM] |
| --- | --- | --- | --- | --- |
| DnaK (from UniProt P0A6Y8) | 1.4 |  |  |  |
| Spy (from UniProt P77754) |  | 3.5 | 10.4 | 20.5 |
